{"source": "the Human Domainome abundance scans (Beltran et al. 2025)", "note": "± gives the uncertainty stated by the source.", "data": [{"assay": "abundance fitness (aPCA) (normalised: wild type 0, dead -1); higher = more abundant; growth selection in yeast, the domain comes from the species named", "details": "Homo sapiens", "values": [{"substance": "Lipoamide acyltransferase component of branched-chain alpha-keto acid dehydrogenase complex, mitochondrial E203V, P11182", "abundance fitness": "-0.08 ± 0.042"}, {"substance": "Lipoamide acyltransferase component of branched-chain alpha-keto acid dehydrogenase complex, mitochondrial E210A, P11182", "abundance fitness": "0.021 ± 0.038"}, {"substance": "Lipoamide acyltransferase component of branched-chain alpha-keto acid dehydrogenase complex, mitochondrial E210C, P11182", "abundance fitness": "-0.048 ± 0.053"}, {"substance": "Lipoamide acyltransferase component of branched-chain alpha-keto acid dehydrogenase complex, mitochondrial E210D, P11182", "abundance fitness": "-0.006 ± 0.058"}, {"substance": "Lipoamide acyltransferase component of branched-chain alpha-keto acid dehydrogenase complex, mitochondrial E210F, P11182", "abundance fitness": "-0.24 ± 0.066"}, {"substance": "Lipoamide acyltransferase component of branched-chain alpha-keto acid dehydrogenase complex, mitochondrial E210H, P11182", "abundance fitness": "-0.319 ± 0.15"}, {"substance": "Lipoamide acyltransferase component of branched-chain alpha-keto acid dehydrogenase complex, mitochondrial E210I, P11182", "abundance fitness": "-0.239 ± 0.055"}, {"substance": "Lipoamide acyltransferase component of branched-chain alpha-keto acid dehydrogenase complex, mitochondrial E210K, P11182", "abundance fitness": "0.034 ± 0.072"}, {"substance": "Lipoamide acyltransferase component of branched-chain alpha-keto acid dehydrogenase complex, mitochondrial E210L, P11182", "abundance fitness": "-0.133 ± 0.041"}, {"substance": "Lipoamide acyltransferase component of branched-chain alpha-keto acid dehydrogenase complex, mitochondrial E210M, P11182", "abundance fitness": "-0.109 ± 0.044"}, {"substance": "Lipoamide acyltransferase component of branched-chain alpha-keto acid dehydrogenase complex, mitochondrial E210N, P11182", "abundance fitness": "-0.061 ± 0.08"}, {"substance": "Lipoamide acyltransferase component of branched-chain alpha-keto acid dehydrogenase complex, mitochondrial E210P, P11182", "abundance fitness": "-0.081 ± 0.056"}, {"substance": "Lipoamide acyltransferase component of branched-chain alpha-keto acid dehydrogenase complex, mitochondrial E210Q, P11182", "abundance fitness": "-0.042 ± 0.053"}, {"substance": "Lipoamide acyltransferase component of branched-chain alpha-keto acid dehydrogenase complex, mitochondrial E210R, P11182", "abundance fitness": "0.008 ± 0.039"}, {"substance": "Lipoamide acyltransferase component of branched-chain alpha-keto acid dehydrogenase complex, mitochondrial E210S, P11182", "abundance fitness": "-0.019 ± 0.042"}, {"substance": "Lipoamide acyltransferase component of branched-chain alpha-keto acid dehydrogenase complex, mitochondrial E210T, P11182", "abundance fitness": "-0.041 ± 0.056"}, {"substance": "Lipoamide acyltransferase component of branched-chain alpha-keto acid dehydrogenase complex, mitochondrial G193A, P11182", "abundance fitness": "-0.199 ± 0.039"}, {"substance": "Lipoamide acyltransferase component of branched-chain alpha-keto acid dehydrogenase complex, mitochondrial G193C, P11182", "abundance fitness": "-0.647 ± 0.059"}, {"substance": "Lipoamide acyltransferase component of branched-chain alpha-keto acid dehydrogenase complex, mitochondrial G193D, P11182", "abundance fitness": "-0.773 ± 0.088"}, {"substance": "Lipoamide acyltransferase component of branched-chain alpha-keto acid dehydrogenase complex, mitochondrial G193E, P11182", "abundance fitness": "-0.706 ± 0.067"}, {"substance": "Lipoamide acyltransferase component of branched-chain alpha-keto acid dehydrogenase complex, mitochondrial G193H, P11182", "abundance fitness": "-0.908 ± 0.2"}, {"substance": "Lipoamide acyltransferase component of branched-chain alpha-keto acid dehydrogenase complex, mitochondrial G193I, P11182", "abundance fitness": "-0.951 ± 0.12"}, {"substance": "Lipoamide acyltransferase component of branched-chain alpha-keto acid dehydrogenase complex, mitochondrial G193K, P11182", "abundance fitness": "-0.732 ± 0.057"}, {"substance": "Lipoamide acyltransferase component of branched-chain alpha-keto acid dehydrogenase complex, mitochondrial G193L, P11182", "abundance fitness": "-0.863 ± 0.061"}, {"substance": "Lipoamide acyltransferase component of branched-chain alpha-keto acid dehydrogenase complex, mitochondrial G193M, P11182", "abundance fitness": "-0.694 ± 0.073"}, {"substance": "Lipoamide acyltransferase component of branched-chain alpha-keto acid dehydrogenase complex, mitochondrial G193P, P11182", "abundance fitness": "-0.08 ± 0.051"}, {"substance": "Lipoamide acyltransferase component of branched-chain alpha-keto acid dehydrogenase complex, mitochondrial G193Q, P11182", "abundance fitness": "-0.573 ± 0.061"}, {"substance": "Lipoamide acyltransferase component of branched-chain alpha-keto acid dehydrogenase complex, mitochondrial G193R, P11182", "abundance fitness": "-0.692 ± 0.04"}, {"substance": "Lipoamide acyltransferase component of branched-chain alpha-keto acid dehydrogenase complex, mitochondrial G193S, P11182", "abundance fitness": "-0.308 ± 0.056"}, {"substance": "Lipoamide acyltransferase component of branched-chain alpha-keto acid dehydrogenase complex, mitochondrial G193T, P11182", "abundance fitness": "-0.476 ± 0.047"}, {"substance": "Lipoamide acyltransferase component of branched-chain alpha-keto acid dehydrogenase complex, mitochondrial G193V, P11182", "abundance fitness": "-0.814 ± 0.05"}, {"substance": "Lipoamide acyltransferase component of branched-chain alpha-keto acid dehydrogenase complex, mitochondrial G193W, P11182", "abundance fitness": "-1.06 ± 0.18"}, {"substance": "Lipoamide acyltransferase component of branched-chain alpha-keto acid dehydrogenase complex, mitochondrial G193Y, P11182", "abundance fitness": "-1.02 ± 0.26"}, {"substance": "Lipoamide acyltransferase component of branched-chain alpha-keto acid dehydrogenase complex, mitochondrial G195A, P11182", "abundance fitness": "-0.464 ± 0.044"}, {"substance": "Lipoamide acyltransferase component of branched-chain alpha-keto acid dehydrogenase complex, mitochondrial G195D, P11182", "abundance fitness": "-0.516 ± 0.12"}]}]}
